In the FLAb antibody collection:

Experiment: patients with anti-drug antibodies; higher = more immunogenic

| Protein | patients with anti-drug antibodies [%] |
| --- | --- |
| unnamed (protein) chain 1: ELQLQESGPGLVKPSETLSLTCTVSGGSISSGSYYWDWIRQPPGKGLEWIGNIYKSGSTYYNPSLKSRVTISVDTSKNQFSLKLSSVTAADTAVYYCARERGMHYMDVWGKGTTVTVSS chain 2: DIQMTQSPSSLSASVGDRVTITCRASQSINSYLNWYQQKPGKAPKLLIYAASSLQSGVPSRFSGSGSGTDFTLTISSLQPEDFATYYCQQQFDPPFTFGGGTKVEIK | 0 |
| unnamed (protein) chain 1: EVQLVESGGGLVQPGGSLRLSCAASGYTFTNYGMNWVRQAPGKGLEWVGWINTYTGEPTYAADFKRRFTFSLDTSKSTAYLQMNSLRAEDTAVYYCAKYPHYYGSSHWYFDVWGQGTLVTVSS chain 2: DIQMTQSPSSLSASVGDRVTITCSASQDISNYLNWYQQKPGKAPKVLIYFTSSLHSGVPSRFSGSGSGTDFTLTISSLQPEDFATYYCQQYSTVPWTFGQGTKVEIK | 0.3 |
| unnamed (protein) chain 1: EVQLVESGGGLVQPGGSLRLSCAASGFTFSDYNMAWVRQAPGKGLEWVATITYEGRNTYYRDSVKGRFTISRDNAKNSLYLQMNSLRAEDTAVYYCASPPQYYEGSIYRLWFAHWGQGTLVTVSS chain 2: AIQLTQSPSSLSASVGDRVTITCRADESVRTLMHWYQQKPGKAPKLLIYLVSNSEIGVPDRFSGSGSGTDFRLTISSLQPEDFATYYCQQTWSDPWTFGQGTKVEIK | 12.8 |
| unnamed (protein) chain 1: EVQLVESGGGLVQPGGSLRLSCAASGFTFNTYAMYWIRQAPGKGLEWVARIRSKSNNYAIYYADSVKDRFTISRDDSKNSLYLQMNSLKTEDTAVYYCARPYSDSFAYWGQGTLVTVSS chain 2: DVVMTQSPLSLPVTPGEPASISCRSSQSLVHSTGNTYLHWYLQKPGQSPQLLIYKVSNRFSGVPDRFSGSGSGTDFTLKISRVEAEDVGVYYCSQSTHVPFTFGGGTKVEIK | 0 |
| unnamed (protein) chain 1: QLQLQESGPGLLKPSETLSLTCTVSGGSISSPGYYGGWIRQPPGKGLEWIGSIYKSGSTYHNPSLKSRVTISVDTSKNQFSLKLSSVTAADTAVYYCTRPVVRYFGWFDPWGQGTLVTVSS chain 2: AIQLTQSPSSLSASVGDRVTITCRASQGISSALAWYQQKPGKAPKLLIYDASNLESGVPSRFSGSGSGTDFTLTISSLQPEDFATYYCQQFNSYPTFGQGTKVEIK | 2.2 |
| unnamed (protein) chain 1: QVQLQQSGAELVRPGSSVKISCKASGYAFSSYWMNWVKQRPGQGLEWIGQIWPGDGDTNYNGKFKGKATLTADESSSTAYMQLSSLASEDSAVYFCARRETTTVGRYYYAMDYWGQGTTVTVSS chain 2: DIQLTQSPASLAVSLGQRATISCKASQSVDYDGDSYLNWYQQIPGQPPKLLIYDASNLVSGIPPRFSGSGSGTDFTLNIHPVEKVDAATYHCQQSTEDPWTFGGGTKLEIK | 1.4 |
| unnamed (protein) chain 1: QVQLVQSGAEVKKPGASVKVSCKASGYTFTSYYMHWVRQAPGQGLEWMGEISPFGGRTNYNEKFKSRVTMTRDTSTSTVYMELSSLRSEDTAVYYCARERPLYASDLWGQGTTVTVSS chain 2: DIQMTQSPSSLSASVGDRVTITCRASQGISSALAWYQQKPGKAPKLLIYSASYRYTGVPSRFSGSGSGTDFTFTISSLQPEDIATYYCQQRYSLWRTFGQGTKLEIK | 25.5 |
| unnamed (protein) chain 1: EVQLQQSGAELVKPGASVKLSCTASGFNIKDTYVHWVKQRPEQGLEWIGRIDPANGYTKYDPKFQGKATITADTSSNTAYLQLSSLTSEDTAVYYCVRPLYDYYAMDYWGQGTSVTVSS chain 2: DILMTQSPSSMSVSLGDTVSITCHASQGISSNIGWLQQKPGKSFMGLIYYGTNLVDGVPSRFSGSGSGADYSLTISSLDSEDFADYYCVQYAQLPYTFGGGTKLEIK | 35.5 |
| unnamed (protein) chain 1: QVQLVESGGGVVQPGRSLRLSCAASGFTFSSYGMHWVRQAPGKGLEWVAVIWYDGSNEYYADSVKGRFTISRDNSKNTLYLQMNSLRAEDTAVYYCARDRGYTSSWYPDAFDIWGQGTMVTVSS chain 2: QSVLTQPPSVSGAPGQRVTISCTGSSSNTGAGYDVHWYQQVPGTAPKLLIYGSGNRPSGVPDRFSGSKSGTSASLAITGLQAEDEADYYCQSYDSSLSGWVFGGGTRLTVL | 2.5 |
| unnamed (protein) chain 1: QIQLQQSGPEVVKPGASVKISCKASGYTFTDYYITWVKQKPGQGLEWIGWIYPGSGNTKYNEKFKGKATLTVDTSSSTAFMQLSSLTSEDTAVYFCANYGNYWFAYWGQGTQVTVSA chain 2: DIVLTQSPASLAVSLGQRATISCKASQSVDFDGDSYMNWYQQKPGQPPKVLIYAASNLESGIPARFSGSGSGTDFTLNIHPVEEEDAATYYCQQSNEDPWTFGGGTKLEIK | 35 |
| unnamed (protein) chain 1: QVQLVQSGAEVKKPGASVKVSCKASGYTFTRYGISWVRQAPGQGLEWMGWISTYSGNTNYAQKLQGRVTMTTDTSTSTAYMELRSLRSDDTAVYYCARRQLYFDYWGQGTLVTVSS chain 2: EIVMTQSPATLSVSPGERATLSCRASQSVSSNLAWFQQKPGQAPRPLIYDASTRATGVPARFSGSGSGTDFTLTISSLQSEDFAVYYCQQYDNWPLTFGGGTKVEIK | 3 |
| unnamed (protein) chain 1: QVQLVQSGAEVKKPGASVKVSCKASGYTFTNHYMHWVRQAPGQGLEWMGIINPISGSTSNAQKFQGRVTMTRDTSTSTVYMELSSLRSEDTAVYYCARDIVDAFDFWGQGTMVTVSS chain 2: AIQLTQSPSSLSASVGDRVTITCRASQGISSALVWYQQKPGKAPKLLIYDASSLESGVPSRFSGSGSGTDFTLTISSLQPEDFATYYCQQFNDYFTFGPGTKVDIK | 5 |
| unnamed (protein) chain 1: QVQLVESGGGVVQPGRSLRLSCAASGFTFSVYGMNWVRQAPGKGLEWVAIIWYDGDNQYYADSVKGRFTISRDNSKNTLYLQMNGLRAEDTAVYYCARDLRTGPFDYWGQGTLVTVSS chain 2: EIVLTQSPDFQSVTPKEKVTITCRASQSIGSSLHWYQQKPDQSPKLLIKYASQSFSGVPSRFSGSGSGTDFTLTINSLEAEDAAAYYCHQSSSLPFTFGPGTKVDIK | 0 |
| unnamed (protein) chain 1: EVQLLESGGVLVQPGGSLRLSCAASGFTFSNFGMTWVRQAPGKGLEWVSGISGGGRDTYFADSVKGRFTISRDNSKNTLYLQMNSLKGEDTAVYYCVKWGNIYFDYWGQGTLVTVSS chain 2: DIQMTQSPSSLSASVGDSITITCRASLSINTFLNWYQQKPGKAPNLLIYAASSLHGGVPSRFSGSGSGTDFTLTIRTLQPEDFATYYCQQSSNTPFTFGPGTVVDFR | 1.3 |
| unnamed (protein) chain 1: EVTLRESGPGLVKPTQTLTLTCTLYGFSLSTSDMGVDWIRQPPGKGLEWLAHIWWDDVKRYNPALKSRLTISKDTSKNQVVLKLTSVDPVDTATYYCARTVSSGYIYYAMDYWGQGTLVTVSS chain 2: DIQMTQSPSSLSASVGDRVTISCRASQDIRNYLNWYQQKPGKAPKLLIFYTSKLHSGVPSRFSGSGSGTDYTLTISSLQPEDIATYYCQQGNTLPLTFGGGTKVEIK | 3 |
| unnamed (protein) chain 1: EVQLVESGGGLVQPGGSLRLSCAASGYVFTDYGMNWVRQAPGKGLEWMGWINTYIGEPIYADSVKGRFTFSLDTSKSTAYLQMNSLRAEDTAVYYCARGYRSYAMDYWGQGTLVTVSS chain 2: DIQMTQSPSSLSASVGDRVTITCKASQNVGTNVAWYQQKPGKAPKALIYSASFLYSGVPYRFSGSGSGTDFTLTISSLQPEDFATYYCQQYNIYPLTFGQGTKVEIK | 8 |
| unnamed (protein) chain 1: EVQLVESGGGLVEPGGSLRLSCAVSGFDFEKAWMSWVRQAPGQGLQWVARIKSTADGGTTSYAAPVEGRFIISRDDSRNMLYLQMNSLKTEDTAVYYCTSAHWGQGTLVTVSS chain 2: SYELTQPPSVSVSPGQTARITCSGEALPMQFAHWYQQRPGKAPVIVVYKDSERPSGVPERFSGSSSGTTATLTITGVQAEDEADYYCQSPDSTNTYEVFGGGTKLTVL | 0 |
| unnamed (protein) chain 1: QVQLVQSGAEVKKPGASVKVSCKVSGYTLSDLSIHWVRQAPGKGLEWMGGFDPQDGETIYAQKFQGRVTMTEDTSTDTAYMELSSLKSEDTAVYYCATGSSSSWFDPWGQGTLVTVSS chain 2: DIQMTQSPSSVSASVGDRVTITCRASQGISSWLAWYQQKPGKAPKLLIYGASNLESGVPSRFSGSGSGTDFTLTISSLQPEDFANYYCQQANSFPWTFGQGTKVEIK | 0.4 |
| unnamed (protein) chain 1: EVQLVESGGGLVQPGGSLRLSCAASGFSLSNYYVTWVRQAPGKGLEWVGIIYGSDETAYATSAIGRFTISRDNSKNTLYLQMNSLRAEDTAVYYCARDDSSDWDAKFNLWGQGTLVTVSS chain 2: AIQMTQSPSSLSASVGDRVTITCQASQSINNELSWYQQKPGKAPKLLIYRASTLASGVPSRFSGSGSGTDFTLTISSLQPDDFATYYCQQGYSLRNIDNAFGGGTKVEIK | 1.8 |
